Experiment [1] concerns the target T1, AdipoR1 (Mus musculus, UniProt Q91VH1).
T1 construct: expressed in transfected cells; host or cells: Xenopus oocytes (stage V to VII), cRNA synthesized from linearized modified pSPUTK
T1 sequence (Q91VH1 1-375): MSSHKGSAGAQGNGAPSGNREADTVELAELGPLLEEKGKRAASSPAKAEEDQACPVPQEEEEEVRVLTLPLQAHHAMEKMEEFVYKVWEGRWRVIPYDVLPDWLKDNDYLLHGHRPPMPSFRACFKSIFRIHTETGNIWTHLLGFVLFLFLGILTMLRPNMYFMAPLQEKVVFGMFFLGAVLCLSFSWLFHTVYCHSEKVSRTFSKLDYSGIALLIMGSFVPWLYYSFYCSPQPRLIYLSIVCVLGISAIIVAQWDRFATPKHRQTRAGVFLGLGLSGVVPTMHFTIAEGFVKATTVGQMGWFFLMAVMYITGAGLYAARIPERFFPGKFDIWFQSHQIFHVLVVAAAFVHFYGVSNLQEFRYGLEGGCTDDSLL
As to the kind of experiment: Electrophysiological recording in Xenopus oocytes expressing AdipoR1. The experiment is classed as cell-based. On the procedure: Stage V to VII oocytes were treated with 2 mg/ml of collagenase S-1 (Nitta gelatin) in calcium ion-free saline solution (82.5 mM NaCl, 2 mM KCl, 1 mM MgCl2, and 5 mM HEPES, pH 7.5) for 1 to 2 hr at room temperature. The resulting oocytes were then microinjected with 50 ng of cRNA for mAdipoR1. The cRNA was synthesized from linearized modified pSPUTK. The injected oocytes were incubated for 3 days at 18° C. in a bath solution (88 mM NaCl, 1 mM KCl, 0.3 mM Ca(NO3)2, 0.4 mM CaCl2, 0.8 mM MgSO4, 2.4 mM […], 15 mM HEPES, pH 7.6) supplemented with 10 μg/ml of penicillin and streptomycin.
Whole cell currents were recorded with a two-electrode voltage clamp technique. Intracellular glass electrodes were filled with 3M KCl. Signals were amplified with an OC-725C amplifier (Warner Instruments), low-pass filtered at 50 Hz, and digitized at 1 kHz. A control bath solution contained 115 mM NaCl, 2.5 mM KCl, 1.8 mM CaCl2, and 10 mM HEPES. It was titrated to pH 7.2 with NaOH. A calcium ion free solution containing 1.8 mM BaCl2 instead of CaCl2 was used. The inward current was monitored at a holding potential of −80 mV. Calcium ion activated Cl^− current was monitored by applying 500-mscc depolarizing pulses of +100 mV and +50 mV from the holding potential of −80 mV. Adiponectin was supplied to the superfusing bath solution via a silicon tube connected to computer-driven solenoid valves. Data acquisition and analysis were carried out using Digidata 1322A and pCLAMP software.

Experiment [2] relates to PGC-1α (Ppargc1a). The experiment can be described thus: PGC-1α (Ppargc1a) expression in C2C12 myocytes. The experiment is classed as cell-based, mouse. As to conditions: C2C12 myocytes, adiponectin 10 μg/ml 1.5 hours. On the procedure:
(§1) Real-time PCR was carried out according to the method described in the following documents (Nature Med. 13, 332-339 2007); Nature 423, 762-769 (2003); J. Biol. Chem. 281, 8748-8755 (2006)). Total RNA was prepared from cells or tissues by using Trizol (Invitrogen) according to the manufacturer's instructions. Quantification of mRNA was conducted using a real-time PCR method (Nature 423, 762-769 (2003)) with slight modifications. The procedures used for immunoblotting are described in the following documents (Nature Med. 7, 941-946 (2001); J. Biol. Chem. 281, 26602-26614 (2006); J. Biol. Chem. 281, 8748-8755 (2006)). The livers or muscles were freeze-clamped in liquid nitrogen in situ (Nature Med. 7, 941-946 (2001); J. Biol. Chem. 281, 26602-26614 (2006); J. Biol. Chem. 281, 8748-8755 (2006)).
The mouse C2C12 myoblasts were grown in 90% Dulbecco's modified high glucose Eagle's medium containing 10% (v/v) fetal bovine serum. When the cells reached 80% confluent, the myoblasts were induced to differentiate into myocytes by replacing the medium with a low serum differentiation medium (98% Dulbecco's modified high glucose Eagle's medium, 2.5% (v/v) horse serum). The medium was changed daily. The C2C12 cells were transfected by using Pofectamine 2000 (Invitrogen) and following the manufacturer's instructions.

Experiment [3] deals with AMPK. As to the kind of experiment: AMPK phosphorylation in vivo (skeletal muscle and liver). More on the design: species or system mice. As to conditions: 30 μg per 10 g body weight, 10 min. On the procedure: Mouse full-length adiponectin was generated as described in the following documents (Nature Med. 8, 1288-1295 (2002); Nature Med. 7, 941-946 (2001); Nature 423, 762-769 (2003)).
as §1

In experiment [4] the test system is soleus muscle. As to the kind of experiment: Calcium imaging in skeletal muscle (soleus). The experiment is classed as cell-based, mice. The settings on record: adiponectin 30 μg/ml. On the procedure:
From 8-10 weeks-old mice, soleus muscles were dissected. Preparations were treated with 5 μM fura-2/AM in the presence of 0.1% Chremophore EL (Sigma) for 15 min. Fluorescence images were acquired using an inverted fluorescence microscopy (IX71, Olympus) equipped with a cooled charge-coupled device (CCD) camera (iXon, Andor) and a dry objective lens (10×, NA=0.3, Olympus) through a filter set consisting of a 327-353 nm and 369-391 nm excitation filter, a 409 nm dichroic mirror, and a 515-560 nm fluorescent filter. Ligands were supplied using the superfusing Ringer's solution (150 mM NaCl, 4 mM KCl, 2.0 mM CaCl2, 1.0 mM MgCl2, 30 mM D-glucose, 5 mM HEPES (pH 7.4)).

This note sets out measurements from US20130274185A1, “Pharmaceutical for Pseudo-Exercise Therapy” (THE UNIVERSITY OF TOKYO, priority 2010, published 2013).

B1: adiponectin (protein, UniProt Q60994 1-247, looked up)
chain: MLLLQALLFLLILPSHAEDDVTTTEELAPALVPPPKGTCAGWMAGIPGHPGHNGTPGRDGRDGTPGEKGEKGDAGLLGPKGETGDVGMTGAEGPRGFPGTPGRKGEPGEAAYVYRSAFSVGLETRVTVPNVPIRFTKIFYNQQNHYDGSTGKFYCNIPGLYYFSYHITVYMKDVKVSLFKKDKAVLFTYDQYQEKNVDQASGSVLLHLEVGDQVWLQVYGDGDHNGLYADNVNDSTFTGFLLYHDTN
modifications: full-length
notes: adipokine, internal ligand of adiponectin receptor 1; recombinant murine full-length adiponectin
B1: in experiment [1] (control oocytes without AdipoR1 cRNA), the “calcium-ion activated Cl- current response” value was “not observed”. For the same molecule, the inward current response entry in experiment [1] (oocytes expressing AdipoR1, adiponectin 30 μg/ml, holding potential -80 mV) was “induced inward current responses”. Besides, the “intracellular calcium levels by calcium-ion activated Cl- current” value in experiment [1] (oocytes injected with AdipoR1 cRNA, adiponectin 30 μg/ml) was “increase in intracellular calcium levels”. Besides, the PGC-1α expression result in experiment [2] is reported as “increase in PGC-1α expression”. Moreover, the “phosphorylation of AMPK in liver” value in experiment [3] (both genotypes) is on record as “increased the phosphorylation of AMPK in the liver of both genotypes”. Further, the “phosphorylation of AMPK in skeletal muscle” value in experiment [3] (control littermates) was “increased the phosphorylation of AMPK in the muscle of control littermates”. The “intracellular calcium ion concentration in soleus muscle (fura-2)” value in experiment [4] (control mice) is “increased the intracellular calcium ion concentration”. Besides, the “calcium responses of soleus muscle” value in experiment [4] (muscle-R1KO mice) is listed as “almost completely disappeared”.
